Results taken from publication PMC5741103.

Tests used:
SLMAP [1] = target: SLMAP (UniProt Q14BN4); assay: co-IP, MST2 variants and V5-SLMAP
SLMAP [2] = target: SLMAP (UniProt Q14BN4); assay: co-IP, FLAG-MST2 and V5-SLMAP; conditions: reference: wild type MST2; sites T325,T336,T378

Substance	binding against the reference (SLMAP [1]; reference: MST2-6A/325T, sites T325)	binding against the reference (SLMAP [1]; reference: MST2-6A/336T, sites T336)	binding against the reference (SLMAP [1]; reference: MST2-6A/378T, sites T378)	binding against the reference (SLMAP [2])
MST2 (from UniProt Q13188) MST2-7A	lost	lost	lost	–
MST2 (from UniProt Q13188) MST2-3A	–	–	–	lost
